Laboratory results published in patent US20260028415A1 (FULL LIFE TECHNOLOGIES HK, published 2026).
Numbering of substitutions follows the chain as printed.

B1: anti-CEACAM5 single domain antibody of SEQ ID NO: 1 (VHH)
VHH: EVQLVESGGGLVQAGGSLRLSCVASTRIAGMGWYRAPPGKGRELVASISEEGTTTYAVPVEGRFTVSRDNVKNMLHLQMNSLKPEDTAMYYCVARRTFPSVVEGVDYWGQGTQVTVSS
notes: Alpaca sdAb clone expressed in E. coli
B2: anti-CEACAM5 single domain antibody of SEQ ID NO: 4 (VHH)
VHH: EVQLVESGGGLVQPGESLRLSCAASGFSFSSYAMSWVRQPPGMGIEWVAEIDSGGGSTDYAVPVKGRFTISRDNVKNTLYLQMNSLKPEDTAVFYCAKGTHADFGSWGQGTQVTVSS
notes: tags or Fc in the assays are not described
B3: anti-CEACAM5 single domain antibody of SEQ ID NO: 9 (VHH)
VHH: B2 VHH with E1Q, S28T, M43K, G56D, S57R, K76E, Q112L
notes: as for B2
B4: anti-CEACAM5 single domain antibody of SEQ ID NO: 3 (VHH)
VHH: EVDLVESGGGLVQPGGSLRLSCAASGFTFSSYYMSWVRQPPGKGIEWVSEISSGGGSTNYAVPVEGRFTISRDNAKNTLSLQMNSLKPEDTALYYCARGSHADFNSWGQGTQVTVSS
notes: as for B2
B5: anti-CEACAM5 single domain antibody of SEQ ID NO: 10 (VHH)
VHH: EVDLMESGGGLVQPGGSLRLSCTASGDTLDYYAIDWFRQAPGKEREGVSCISSRGGTTNYADAVKGRFTISRDNAKNTVYLQMNSLRPEDTAVYYCAAEFTGWAVCNFSRKSGEYDYWGQGTQVTVSS
notes: as for B2
B6: anti-CEACAM5 single domain antibody of SEQ ID NO: 2 (VHH)
VHH: QLQLVESGGGLVQPGGSLRLSCAVSGDRWDYYAIGWIRQAPGKEREGVSCISSSGRTTNYADSVKGRFTISRDNAKNTVYLQMNSLKPEDTAVYYCSTEFTGWDRCGFDEYDHRGQGTQVTVSS
notes: as for B2
B7: anti-CEACAM5 single domain antibody of SEQ ID NO: 8 (VHH)
VHH: AVQLVESGGGLVQAGGSLRLSCAASGRTFSSYWLGWFRQVPGEEREFVAAISWSGSGVVTNYADSVKGRFTISRDDGNNALYLQMSNLNPEDTAVYYCAARLGTYYKDYARSGAYDTWGQGTQVTVSS
notes: as for B2
B8: anti-CEACAM5 single domain antibody of SEQ ID NO: 6 (VHH)
VHH: EVQLVESGGGLVQPGGSLRLSCAASRGTFSRLDMGWFRQAPGKEREFVASSTWSGGTAYATDSVKTRFTISRDSAKTTVYLQMNSLRPEDTAVYYCAAGLSLEQHTPPYWGQGTQVTVSS
notes: as for B2
B9: anti-CEACAM5 single domain antibody of SEQ ID NO: 7 (VHH)
VHH: EVQLVESGGGLVQAGGSLRLSCAASGRTFSRDVMGWFRQAPGKEREFVAVINWTDSTYYLDSVKGRFTISRENAENTVYLQMNSLKPEDTAIYYCATGIGGLYRRPSAYKYWGQGTQVTVSS
notes: as for B2
B10: anti-CEACAM5 single domain antibody of SEQ ID NO: 5 (VHH)
VHH: EVDLVESGGGLVQAGGSLRLSCAPSGRTSSLDTMAWFRQAPGKEREFVASTNWNRGGASYADSVKGRFTISRDATKNTVYLQINSLEPEDTAVYYCAASTRGIVSDNYWGQGTQVTVSS
notes: as for B2

Key:
[1] = target: T1, human CEACAM5 expressed on MKN45 cells (human, UniProt P06731 35-685); experiment: flow cytometry on MKN45 cells, 300 nm [sic], PE-anti human Fc secondary; negative control
T1 sequence: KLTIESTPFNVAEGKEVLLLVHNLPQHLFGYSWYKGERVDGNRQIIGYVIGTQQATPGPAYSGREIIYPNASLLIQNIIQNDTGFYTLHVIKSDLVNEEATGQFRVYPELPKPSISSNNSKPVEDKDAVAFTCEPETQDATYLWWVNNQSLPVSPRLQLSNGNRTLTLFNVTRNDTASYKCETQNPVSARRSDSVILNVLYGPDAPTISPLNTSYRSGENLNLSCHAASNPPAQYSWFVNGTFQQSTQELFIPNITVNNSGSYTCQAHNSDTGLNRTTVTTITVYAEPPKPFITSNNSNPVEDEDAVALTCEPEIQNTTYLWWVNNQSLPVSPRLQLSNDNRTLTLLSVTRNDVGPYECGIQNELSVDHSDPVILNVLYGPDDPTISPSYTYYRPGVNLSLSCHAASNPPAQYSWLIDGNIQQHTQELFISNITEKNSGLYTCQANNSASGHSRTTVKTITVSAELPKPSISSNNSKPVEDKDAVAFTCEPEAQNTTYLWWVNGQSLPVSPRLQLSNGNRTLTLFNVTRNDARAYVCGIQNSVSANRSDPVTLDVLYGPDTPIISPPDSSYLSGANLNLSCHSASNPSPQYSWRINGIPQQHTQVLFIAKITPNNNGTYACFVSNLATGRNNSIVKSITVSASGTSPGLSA

[2] = target: T1, human CEACAM5 expressed on MKN45 cells; experiment: flow cytometry on MKN45 cells, sdAb at 300 nm as printed, PE-anti human Fc secondary
[3] = target: T2, Human CEACAM5 A3B3 domain (human, UniProt P06731 499-685); experiment: SPR (Biacore T200), A3B3 domain captured on anti-human Fc CM5 chip, sdAb injected, 1:1 Langmuir
T2 construct: also called human A3B3 domain; not shown: The human Fc part (and any linker) implied by capture on an anti-human Fc antibody chip
T2 sequence: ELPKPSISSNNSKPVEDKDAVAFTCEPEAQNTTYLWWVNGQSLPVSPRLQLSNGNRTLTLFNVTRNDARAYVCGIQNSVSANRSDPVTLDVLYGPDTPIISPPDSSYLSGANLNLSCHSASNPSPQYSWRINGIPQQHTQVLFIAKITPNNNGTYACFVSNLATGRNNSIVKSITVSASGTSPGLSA

[4] = target: T1, human CEACAM5 expressed on MKN45 cells; experiment: cell-based or functional assay

Row | Molecule | Geometric mean MFI [1] [MFI] | Geometric mean MFI [2] [MFI] | Kd [3] [nM] | koff [3] [s⁻¹] | kon [3] [M⁻¹ s⁻¹] | EC50 (read off the curve), internalization by pHrodo [4] [nM]
1 | Human IgG1 isotype (antibody) | 12.9 |  |  |  |  | 
2 | B1 |  | 292 | 0.362 | 4.46e-05 | 123000 | ~20
3 | B2 |  | 394 | 2 | 0.000311 | 155000 | 
4 | B3 |  | 382 | 0.732 |  |  | 25 to 30
5 | B4 |  |  | 7.74 | 0.0032 | 414000 | 
6 | B5 |  |  | 48.9 | 0.0137 | 280000 | ~20
7 | B6 |  | 565 | 0.533 | 0.000997 | 1.87e+06 | 
8 | B7 |  | 636 | 19.1 | 0.00243 | 127000 | 
9 | B8 |  | 647 | 7.77 | 0.00126 | 162000 | 
10 | B9 |  |  | 19 | 0.013 | 688000 | 
11 | B10 |  | 292 | 9.74 | 0.00208 | 214000 | ~20
